How the values were obtained:
[1] = target: Light-harvesting 2 (LH2) complex from Rhodobacter sphaeroides (Rhodobacter sphaeroides); experiment: FRET or BRET; fluorescence lifetime microscopy (TCSPC) of LH2 emission at 857 ± 3 nm after excitation at 485 nm; intact DOPC proteoliposomes (LH2 only, 2:1, 1:1, 0.5:1 LH2:RC-LH1); E = 1 - τDA/τD; values are averages for the whole system
[2] = target: Reaction-centre light-harvesting 1 (RC-LH1) complex from Rhodobacter sphaeroides, carotenoid-less (from the ΔcrtB strain) (Rhodobacter sphaeroides) (UniProt P0C0Y8); experiment: as above

LH2 fluorescence lifetime in LH2-only proteoliposomes [1]: 0.72 ns
LH2 fluorescence lifetime in proteoliposomes (0.5:1 LH2:RC-LH1) [2]: 0.37 ns
LH2 fluorescence lifetime in proteoliposomes (1:1 LH2:RC-LH1) [2]: 0.35 ns
LH2 fluorescence lifetime in proteoliposomes (2:1 LH2:RC-LH1) [2]: 0.43 ns
LH2→RC-LH1 energy transfer efficiency (0.5:1 LH2:RC-LH1) [2]: 49%
LH2→RC-LH1 energy transfer efficiency (1:1 LH2:RC-LH1) [2]: 51%
LH2→RC-LH1 energy transfer efficiency (2:1 LH2:RC-LH1) [2]: 40%
Substance: Light-harvesting 2 (LH2) complex from Rhodobacter sphaeroides
